Measured values as given in the supplement of paper PMC7877785.
± gives the uncertainty stated by the source.

Assay: self-splicing fitness, log relative to wild type (ln ratio); higher = more splicing; Tetrahymena group I intron in knt gene, E. coli kanamycin selection, DiMSum; sequences stand for … in CUCUCU…GGAGGGAAAAGUUAUCAGGCAUGCACCUGGUAGCUAGUCUUUAAACCAAUAGAUUGCAUCGGUUUAAAAGGCAAGACCGUCAAAUUGCGGGAAAGGGGUCAACAGCCGUUCAGUACCAAGUCUCAGGGGAAACUUUGAGAUGGCCUUGCAAAGGGUAUGGUAAUAAGCUGACGGACAUGGUCCUAACCACGCAGCCAAGUCCUAAGUCAACAGAUCUUCUGUUGAUAUGGAUGCAGUUCACAGACUAAAUGUCGGUCGGGGAAGAUGUAUUCUUCUCAUAAGAUAUAGUCGGACCUCUCCUUAAUGGGAGCUAGCGGAUGAAGUGAUGCAACACUGGAGCCGCUGGGAACUAAUUUGUAUGCGAAAGUAUAUUGAUUAGUUUUGGAGUACUCGUGGUCG
Outline: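 DiMSum derived fitness as the error-weighted combination of fold changes across replicates, kanamycin versus no kanamycin, normalised to wild type. E. coli BL21(DE3) held the library, which randomised all eight P1ex-region intron nucleotides within the knt kanamycin-resistance gene on pET-22b(+). Six replicate transformations grew overnight at 37°C or 30°C on LB agar with or without 25 μg/mL kanamycin, also containing 100 μg/mL carbenicillin, 50 μM IPTG and 0.2% rhamnose, and pooled colonies were amplicon-sequenced on an Illumina HiSeq 2500.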

| Sequence | self-splicing fitness (ln) (30 °C) | self-splicing fitness (ln) (37 °C) |
| --- | --- | --- |
| GGCCAGCAAUAUUACGCAGA | -1.66 ± 0.082 | -1.28 ± 0.08 |
| GGCCAGCAAUAUUACGCAUC | -0.0388 ± 0.15 | 0.0683 ± 0.16 |
| GGCCAGCAAUAUUACGCCUC | -0.497 ± 0.13 | -0.06 ± 0.15 |
| GGCCAGCAAUAUUACGCUUU | -0.464 ± 0.064 | 0.4 ± 0.087 |
| GGCCAGCAAUAUUACGGCGG | -0.775 ± 0.1 | -1.53 ± 0.15 |
| GGCCAGCAAUAUUACGGGAG | -2.14 ± 0.13 | -0.796 ± 0.12 |
| GGCCAGCAAUAUUACGGUGU | -0.779 ± 0.058 | -0.114 ± 0.07 |
| GGCCAGCAAUAUUACGUAAG | -1.3 ± 0.084 | -1.25 ± 0.15 |
| GGCCAGCAAUAUUACGUACA | -2.75 ± 0.17 | -1.71 ± 0.15 |
| GGCCAGCAAUAUUACGUCGC | -1.17 ± 0.11 | -0.0357 ± 0.11 |
| GGCCAGCAAUAUUACGUGCU | -3.59 ± 0.15 | -2.52 ± 0.2 |
| GGCCAGCAAUAUUACGUUAA | -3.51 ± 0.29 | -2.62 ± 0.19 |
| GGCCAGCAAUAUUACGUUUU | -1.31 ± 0.065 | -1.22 ± 0.079 |
| GGCGAGCAAUAUUACGAAAC | -2.42 ± 0.15 | -0.0615 ± 0.14 |
| GGCGAGCAAUAUUACGAAUU | -1.66 ± 0.14 | -0.459 ± 0.17 |
| GGCGAGCAAUAUUACGACAC | -1.12 ± 0.19 | -0.253 ± 0.26 |
| GGCGAGCAAUAUUACGACCC | -3.18 ± 0.44 | -1.25 ± 0.5 |
| GGCGAGCAAUAUUACGACCU | -0.951 ± 0.19 | -0.976 ± 0.39 |
| GGCGAGCAAUAUUACGAGAC | -1.31 ± 0.49 | – |
| GGCGAGCAAUAUUACGAGCA | -1.44 ± 0.25 | -0.374 ± 0.28 |
| GGCGAGCAAUAUUACGAGGU | -3.57 ± 0.36 | -0.907 ± 0.22 |
| GGCGAGCAAUAUUACGCAGU | -1.29 ± 0.43 | -0.76 ± 0.39 |
| GGCGAGCAAUAUUACGCGGG | – | -2.89 ± 0.38 |
| GGCGAGCAAUAUUACGCUCA | -1.02 ± 0.11 | 0.00865 ± 0.12 |
| GGCGAGCAAUAUUACGCUUA | -1.63 ± 0.15 | -0.623 ± 0.15 |

| Sequence | self-splicing fitness (ln) (30 °C) | self-splicing fitness (ln) (37 °C) |
| --- | --- | --- |
| GGCGAGCAAUAUUACGCUUG | – | -2.71 ± 0.48 |
| GGCGAGCAAUAUUACGGCCA | -1.39 ± 0.21 | -1.35 ± 0.27 |
| GGCGAGCAAUAUUACGGCCG | -2.11 ± 0.16 | -0.882 ± 0.2 |
| GGCGAGCAAUAUUACGGCUU | -0.682 ± 0.2 | -0.0819 ± 0.35 |
| GGCGAGCAAUAUUACGGGGG | -3.33 ± 0.2 | -2.64 ± 0.28 |
| GGCGAGCAAUAUUACGUAUU | -2.29 ± 0.14 | -0.757 ± 0.12 |
| GGCGAGCAAUAUUACGUCGA | -2.43 ± 0.23 | -0.47 ± 0.15 |
| GGCGAGCAAUAUUACGUGGC | -3.3 ± 0.25 | -1.73 ± 0.25 |
| GGCGAGCAAUAUUACGUUCU | -1.02 ± 0.051 | -0.335 ± 0.07 |
| GGCGAGCAAUAUUACGUUGU | -3.25 ± 0.18 | -2.48 ± 0.25 |
| GGCUAGCAAUAUUACGAAGG | – | -0.668 ± 0.29 |
| GGCUAGCAAUAUUACGACCA | -1.49 ± 0.3 | -1.43 ± 0.31 |
| GGCUAGCAAUAUUACGACCG | -0.745 ± 0.14 | -0.188 ± 0.21 |
| GGCUAGCAAUAUUACGACGG | -3.75 ± 0.37 | -2.18 ± 0.46 |
| GGCUAGCAAUAUUACGAGGA | -1.17 ± 0.17 | -1.47 ± 0.14 |
| GGCUAGCAAUAUUACGAGUC | – | -1.08 ± 0.26 |
| GGCUAGCAAUAUUACGCCGC | -3.44 ± 0.41 | – |
| GGCUAGCAAUAUUACGCCGU | -1.49 ± 0.11 | -0.833 ± 0.17 |
| GGCUAGCAAUAUUACGCCUC | -1.35 ± 0.18 | -0.927 ± 0.23 |
| GGCUAGCAAUAUUACGCGCU | -2.76 ± 0.25 | -2.42 ± 0.3 |
| GGCUAGCAAUAUUACGCUAU | -1.3 ± 0.11 | 0.0903 ± 0.12 |
| GGCUAGCAAUAUUACGCUGG | -4.2 ± 0.42 | – |
| GGCUAGCAAUAUUACGCUUA | -0.872 ± 0.1 | -0.117 ± 0.11 |
| GGCUAGCAAUAUUACGCUUU | -0.428 ± 0.083 | 0.202 ± 0.099 |
| GGCUAGCAAUAUUACGGCGC | 0.164 ± 0.14 | 0.272 ± 0.16 |

| Sequence | self-splicing fitness (ln) (30 °C) | self-splicing fitness (ln) (37 °C) |
| --- | --- | --- |
| GGCUAGCAAUAUUACGGGAU | -1.89 ± 0.089 | -1.03 ± 0.11 |
| GGCUAGCAAUAUUACGGGCA | 0.122 ± 0.082 | 0.0658 ± 0.092 |
| GGCUAGCAAUAUUACGGGCC | – | -1.98 ± 0.42 |
| GGCUAGCAAUAUUACGGGGA | -2.17 ± 0.17 | -1.25 ± 0.17 |
| GGCUAGCAAUAUUACGGGGC | -3.67 ± 0.47 | -2.08 ± 0.28 |
| GGCUAGCAAUAUUACGGUAC | -1.91 ± 0.17 | -0.733 ± 0.14 |
| GGCUAGCAAUAUUACGGUCA | -0.918 ± 0.1 | -0.851 ± 0.085 |
| GGCUAGCAAUAUUACGGUCC | -4.11 ± 0.33 | -2.97 ± 0.28 |
| GGCUAGCAAUAUUACGGUGA | -0.0349 ± 0.072 | 0.281 ± 0.086 |
| GGCUAGCAAUAUUACGGUUG | -0.166 ± 0.076 | -0.197 ± 0.098 |
| GGCUAGCAAUAUUACGUAAU | -0.265 ± 0.1 | 0.283 ± 0.12 |
| GGCUAGCAAUAUUACGUACG | -0.805 ± 0.1 | 0.365 ± 0.11 |
| GGCUAGCAAUAUUACGUAGU | -3.29 ± 0.17 | -2.04 ± 0.2 |
| GGCUAGCAAUAUUACGUCUA | -0.349 ± 0.13 | -0.105 ± 0.11 |
| GGCUAGCAAUAUUACGUGCC | -2.22 ± 0.25 | – |
| GGCUAGCAAUAUUACGUUAC | -1.55 ± 0.069 | -0.888 ± 0.093 |
| GGCUAGCAAUAUUACGUUCC | -1.62 ± 0.11 | -0.39 ± 0.11 |
| GGGAAGCAAUAUUACGAAUG | – | -0.92 ± 0.34 |
| GGGAAGCAAUAUUACGAAUU | -0.943 ± 0.23 | -0.115 ± 0.21 |
| GGGAAGCAAUAUUACGACAA | -2 ± 0.2 | -1.34 ± 0.19 |
| GGGAAGCAAUAUUACGACUA | -0.9 ± 0.15 | 0.352 ± 0.17 |
| GGGAAGCAAUAUUACGACUG | -0.222 ± 0.088 | -0.457 ± 0.11 |
| GGGAAGCAAUAUUACGAGUA | – | -2.29 ± 0.36 |
| GGGAAGCAAUAUUACGAUAA | -1.61 ± 0.11 | -0.785 ± 0.15 |
| GGGAAGCAAUAUUACGCUCA | – | -0.0289 ± 0.38 |

| Sequence | self-splicing fitness (ln) (30 °C) | self-splicing fitness (ln) (37 °C) |
| --- | --- | --- |
| GGGAAGCAAUAUUACGCUGC | -2.83 ± 0.48 | – |
| GGGAAGCAAUAUUACGGAAC | -2.09 ± 0.2 | -2.13 ± 0.27 |
| GGGAAGCAAUAUUACGGAUU | -0.965 ± 0.07 | -0.737 ± 0.1 |
| GGGAAGCAAUAUUACGGCUC | -0.727 ± 0.12 | 0.0488 ± 0.17 |
| GGGAAGCAAUAUUACGGGCC | -2.03 ± 0.14 | -0.949 ± 0.13 |
| GGGAAGCAAUAUUACGUAGG | -3.64 ± 0.32 | -0.93 ± 0.11 |
| GGGAAGCAAUAUUACGUCUC | -3.97 ± 0.37 | -3 ± 0.35 |
| GGGAAGCAAUAUUACGUGCG | -1.4 ± 0.11 | -0.371 ± 0.13 |
| GGGAAGCAAUAUUACGUUAC | -2.75 ± 0.15 | -1.15 ± 0.14 |
| GGGCAGCAAUAUUACGAACG | -1.18 ± 0.12 | 0.475 ± 0.17 |
| GGGCAGCAAUAUUACGAAUG | -2.93 ± 0.17 | -2.12 ± 0.23 |
| GGGCAGCAAUAUUACGACAA | -1.53 ± 0.22 | -0.573 ± 0.18 |
| GGGCAGCAAUAUUACGAGAU | -3.14 ± 0.23 | -2.41 ± 0.32 |
| GGGCAGCAAUAUUACGAGGA | – | -2.97 ± 0.47 |
| GGGCAGCAAUAUUACGAUCA | -1.56 ± 0.13 | -0.598 ± 0.15 |
| GGGCAGCAAUAUUACGCCCG | -2.33 ± 0.23 | – |
| GGGCAGCAAUAUUACGCCUG | -1.27 ± 0.14 | 0.02 ± 0.13 |
| GGGCAGCAAUAUUACGCGAG | -0.948 ± 0.094 | -0.664 ± 0.098 |
| GGGCAGCAAUAUUACGCGUU | -0.662 ± 0.073 | -0.349 ± 0.087 |
| GGGCAGCAAUAUUACGCUGG | -3.14 ± 0.14 | -2.53 ± 0.16 |
| GGGCAGCAAUAUUACGCUUG | -0.914 ± 0.088 | 0.22 ± 0.13 |
| GGGCAGCAAUAUUACGGGAC | -2.3 ± 0.18 | -1.61 ± 0.18 |
| GGGCAGCAAUAUUACGGUGG | -3.42 ± 0.17 | -1.86 ± 0.16 |
| GGGCAGCAAUAUUACGUAUA | -1.85 ± 0.13 | -1.1 ± 0.14 |
| GGGCAGCAAUAUUACGUGCG | -0.439 ± 0.057 | -0.235 ± 0.077 |
